Measured values taken from patent US20200261595A1 (Novo Nordisk, published 2020).

Columns and labels:
[1] = biological target: insulin receptor of isolated rat adipocytes (rat, UniProt P15127 27-1383); assay: cell-based or functional assay
insulin receptor A [2] = biological target: T1, insulin receptor A (UniProt P06213-2 28-1370, limits assumed); assay: summary of Table 3; upper end tied by Table 3 to the compound of Example 5.8 (10.58)
insulin receptor A [3] = biological target: T1, insulin receptor A; assay: insulin receptor binding assay as in Vienberg et al. 2011; relative to human insulin on insulin receptor A (100%)
insulin receptor A [4] = biological target: T1, insulin receptor A; assay: summary of Table 3; lower end tied by Table 3 to the compound of Example 5.31 (0.47)

Sequence of insulin receptor of isolated rat adipocytes (P15127 27-1383): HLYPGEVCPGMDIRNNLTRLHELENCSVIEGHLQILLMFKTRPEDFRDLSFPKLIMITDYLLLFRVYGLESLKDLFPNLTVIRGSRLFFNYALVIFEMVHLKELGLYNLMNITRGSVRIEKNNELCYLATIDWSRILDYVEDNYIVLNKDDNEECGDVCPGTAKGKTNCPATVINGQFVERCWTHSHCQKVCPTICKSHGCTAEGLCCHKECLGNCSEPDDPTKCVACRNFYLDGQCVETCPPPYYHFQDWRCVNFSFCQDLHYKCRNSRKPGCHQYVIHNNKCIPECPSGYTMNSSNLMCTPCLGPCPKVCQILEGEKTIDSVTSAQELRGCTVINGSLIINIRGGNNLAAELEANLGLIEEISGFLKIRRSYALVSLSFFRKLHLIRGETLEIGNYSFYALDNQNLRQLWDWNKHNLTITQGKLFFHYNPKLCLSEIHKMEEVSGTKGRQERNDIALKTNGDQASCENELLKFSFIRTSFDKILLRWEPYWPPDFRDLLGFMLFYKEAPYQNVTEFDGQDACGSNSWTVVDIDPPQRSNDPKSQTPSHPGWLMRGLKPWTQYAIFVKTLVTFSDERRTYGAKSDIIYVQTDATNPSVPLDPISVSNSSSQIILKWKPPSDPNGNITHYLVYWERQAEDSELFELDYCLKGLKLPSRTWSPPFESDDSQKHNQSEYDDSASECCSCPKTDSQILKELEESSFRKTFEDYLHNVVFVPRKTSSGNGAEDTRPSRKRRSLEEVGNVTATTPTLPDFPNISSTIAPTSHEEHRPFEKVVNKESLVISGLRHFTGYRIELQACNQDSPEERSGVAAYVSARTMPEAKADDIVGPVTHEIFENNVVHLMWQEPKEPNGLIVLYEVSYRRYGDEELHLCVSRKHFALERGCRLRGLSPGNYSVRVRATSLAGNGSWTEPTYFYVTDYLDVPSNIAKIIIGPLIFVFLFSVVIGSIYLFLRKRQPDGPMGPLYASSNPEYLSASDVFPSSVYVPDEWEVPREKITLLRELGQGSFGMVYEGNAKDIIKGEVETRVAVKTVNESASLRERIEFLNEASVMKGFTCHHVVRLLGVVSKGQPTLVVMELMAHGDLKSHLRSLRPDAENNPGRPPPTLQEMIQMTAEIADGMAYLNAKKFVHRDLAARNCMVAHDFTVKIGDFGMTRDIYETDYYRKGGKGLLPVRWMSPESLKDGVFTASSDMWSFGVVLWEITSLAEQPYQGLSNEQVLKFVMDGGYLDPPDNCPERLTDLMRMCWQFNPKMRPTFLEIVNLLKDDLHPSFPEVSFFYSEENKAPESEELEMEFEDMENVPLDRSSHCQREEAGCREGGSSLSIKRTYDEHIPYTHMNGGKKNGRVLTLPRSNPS
T1 sequence (P06213 other isoform, or with tags, fused parts or gaps limits assumed): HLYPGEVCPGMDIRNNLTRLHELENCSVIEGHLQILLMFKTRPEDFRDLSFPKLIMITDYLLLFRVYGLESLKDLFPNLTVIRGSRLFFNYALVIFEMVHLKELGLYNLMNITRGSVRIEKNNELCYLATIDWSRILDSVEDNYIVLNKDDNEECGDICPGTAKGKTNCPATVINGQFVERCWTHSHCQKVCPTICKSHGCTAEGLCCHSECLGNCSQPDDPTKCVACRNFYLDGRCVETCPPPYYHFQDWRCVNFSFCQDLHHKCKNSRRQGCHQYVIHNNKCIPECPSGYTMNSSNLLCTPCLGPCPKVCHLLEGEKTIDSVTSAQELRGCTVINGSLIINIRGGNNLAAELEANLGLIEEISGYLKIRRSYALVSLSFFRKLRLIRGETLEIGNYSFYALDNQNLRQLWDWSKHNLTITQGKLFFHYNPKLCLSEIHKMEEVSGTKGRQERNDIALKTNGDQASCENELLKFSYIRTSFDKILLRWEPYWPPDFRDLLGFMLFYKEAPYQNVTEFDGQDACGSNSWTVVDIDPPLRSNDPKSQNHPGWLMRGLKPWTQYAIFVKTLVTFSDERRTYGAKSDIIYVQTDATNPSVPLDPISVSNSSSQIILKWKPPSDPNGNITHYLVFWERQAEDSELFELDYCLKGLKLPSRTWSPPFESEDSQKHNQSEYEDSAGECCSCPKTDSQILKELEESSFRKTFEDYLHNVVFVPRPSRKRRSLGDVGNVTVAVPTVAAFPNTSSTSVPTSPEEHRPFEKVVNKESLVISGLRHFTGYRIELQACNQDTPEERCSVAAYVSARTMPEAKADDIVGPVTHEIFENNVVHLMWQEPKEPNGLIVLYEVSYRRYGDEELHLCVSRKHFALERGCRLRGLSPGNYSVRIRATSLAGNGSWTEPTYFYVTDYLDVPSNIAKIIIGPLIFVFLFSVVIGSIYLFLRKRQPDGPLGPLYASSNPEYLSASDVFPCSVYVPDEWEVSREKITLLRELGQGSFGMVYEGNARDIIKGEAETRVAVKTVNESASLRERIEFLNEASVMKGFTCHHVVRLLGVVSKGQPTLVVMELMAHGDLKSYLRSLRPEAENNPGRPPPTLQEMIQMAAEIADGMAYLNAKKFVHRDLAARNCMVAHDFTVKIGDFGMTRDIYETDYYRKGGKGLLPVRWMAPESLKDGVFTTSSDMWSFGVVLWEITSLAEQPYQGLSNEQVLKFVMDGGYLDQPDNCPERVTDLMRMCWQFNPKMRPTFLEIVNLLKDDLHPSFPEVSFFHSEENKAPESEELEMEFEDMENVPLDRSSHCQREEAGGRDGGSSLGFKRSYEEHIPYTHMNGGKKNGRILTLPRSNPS

Binder	Lipogenesis in rat adipocytes [Potency (%)] Mean Value [1]	insulin receptor affinity relative to human insulin (insulin receptor A [2]) [%]	Insulin receptor affinity [IC50 relative to HI (%)] (insulin receptor A [3]) [%]	insulin receptor affinity relative to human insulin (insulin receptor A [4]) [%]
A14E, A21G, A22(GQEP)12, A70K^, A71P, B25H, B29R, desB30 human insulin/(227A, 234A, 235K hIgG4-Fc(228-447)) … (other, Cys229 (EU numbering) sulphur bound to an acetyl arm of the linker; A70K N(eps) acylated by the trivalent linker 4-[bis[2-[(2-acetyl)amino]ethyl]amino]-4-oxo-butanoyl, also called Ex 5.8) chain 1: GIVEQCCTSICSLEQLENYCGGQEPGQEPGQEPGQEPGQEPGQEPGQEPGQEPGQEPGQEPGQEPGQEPKP chain 2: FVNQHLCGSHLVEALYLVCGERGFHYTPR chain 3: ASCPAPEAKGGPSVFLFPPKPKDTLMISRTPEVTCVVVDVSQEDPEVQFNWYVDGVEVHNAKTKPREEQFNSTYRVVSVLTVLHQDWLNGKEYKCKVSNKGLPSSIEKTISKAKGQPREPQVYTLPPSQEEMTKNQVSLTCLVKGFYPSDIAVEWESNGQPENNYKTTPPVLDSDGSFFLYSRLTVDKSRWQEGNVFSCSVMHEALHNHYTQKSLSLSLGK	5.31 % of human insulin	0.5 to 10	10.6	–
A14E, A21G, A22(GQEP)6, A46K^, A47P, B25H, B29R, desB30 human insulin/(227A, 234A, 235K hIgG4-Fc(228-447)) … (other, Cys229 (EU numbering) sulphur bound to an acetyl arm of the linker; A46K N(eps) acylated by the trivalent linker 4-[bis[2-[(2-acetyl)amino]ethyl]amino]-4-oxo-butanoyl, also called Ex 5.7) chain 1: GIVEQCCTSICSLEQLENYCGGQEPGQEPGQEPGQEPGQEPGQEPKP chain 2: FVNQHLCGSHLVEALYLVCGERGFHYTPR chain 3: ASCPAPEAKGGPSVFLFPPKPKDTLMISRTPEVTCVVVDVSQEDPEVQFNWYVDGVEVHNAKTKPREEQFNSTYRVVSVLTVLHQDWLNGKEYKCKVSNKGLPSSIEKTISKAKGQPREPQVYTLPPSQEEMTKNQVSLTCLVKGFYPSDIAVEWESNGQPENNYKTTPPVLDSDGSFFLYSRLTVDKSRWQEGNVFSCSVMHEALHNHYTQKSLSLSLGK	1.88 % of human insulin	–	2.43	–

Continued, values first:

Lipogenesis in rat adipocytes [Potency (%)] Mean Value [1]	insulin receptor affinity relative to human insulin (insulin receptor A [2]) [%]	Insulin receptor affinity [IC50 relative to HI (%)] (insulin receptor A [3]) [%]	insulin receptor affinity relative to human insulin (insulin receptor A [4]) [%]	Binder
6.69 % of human insulin	–	5.07	–	(A14E, A21G, A22(GQEP)19, A98K^, A99P, B25H, B29R, desB30 human insulin)/(227A, 234A, 235K hIgG4-Fc(228-447)) … (other, Cys229 (EU numbering) sulphur bound to an acetyl arm of the linker; A98K N(eps) acylated by the trivalent linker 4-[bis[2-[(2-acetyl)amino]ethyl]amino]-4-oxo-butanoyl, Fc made in E. coli; also called Ex 5.1) chain 1: GIVEQCCTSICSLEQLENYCGGQEPGQEPGQEPGQEPGQEPGQEPGQEPGQEPGQEPGQEPGQEPGQEPGQEPGQEPGQEPGQEPGQEPGQEPGQEPKP chain 2: FVNQHLCGSHLVEALYLVCGERGFHYTPR chain 3: ASCPAPEAKGGPSVFLFPPKPKDTLMISRTPEVTCVVVDVSQEDPEVQFNWYVDGVEVHNAKTKPREEQFNSTYRVVSVLTVLHQDWLNGKEYKCKVSNKGLPSSIEKTISKAKGQPREPQVYTLPPSQEEMTKNQVSLTCLVKGFYPSDIAVEWESNGQPENNYKTTPPVLDSDGSFFLYSRLTVDKSRWQEGNVFSCSVMHEALHNHYTQKSLSLSLGK
0.6 % of human insulin	–	0.47	0.5 to 10	(A14E, A21G, A22(GQAP)18, A94G, A95Q, A96A, A97K^, A98P, B16E, B25H, B29R, desB30 human insulin)/(227A, 234A, 235K, 297E, 315Q, 384Q, des447 hIgG4-Fc(228-447)) … (other, Cys229 (EU numbering) sulphur bound to an acetyl arm of the linker; A97K N(eps) acylated by the trivalent linker 4-[bis[2-[(2-acetyl)amino]ethyl]amino]-4-oxo-butanoyl) chain 1: GIVEQCCTSICSLEQLENYCGGQAPGQAPGQAPGQAPGQAPGQAPGQAPGQAPGQAPGQAPGQAPGQAPGQAPGQAPGQAPGQAPGQAPGQAPGQAKP chain 2: FVNQHLCGSHLVEALELVCGERGFHYTPR chain 3: ASCPAPEAKGGPSVFLFPPKPKDTLMISRTPEVTCVVVDVSQEDPEVQFNWYVDGVEVHNAKTKPREEQFESTYRVVSVLTVLHQDWLQGKEYKCKVSNKGLPSSIEKTISKAKGQPREPQVYTLPPSQEEMTKNQVSLTCLVKGFYPSDIAVEWESQGQPENNYKTTPPVLDSDGSFFLYSRLTVDKSRWQEGNVFSCSVMHEALHNHYTQKSLSLSLG
